Drawing on paper PMC11543927, “Subtleties in Clathrin heavy chain binding boxes provide selectivity among adaptor proteins of budding yeast” (Nature Communications, 2024), this text covers response for seven variants.

First the molecules themselves.
B1: Clathrin heavy chain fused to mScarlet (Chc-mScarlet), wild type [Saccharomyces cerevisiae] / Ent1 endogenously tagged with mNeonGreen (Ent1-mNeonGreen) [Saccharomyces cerevisiae (endogenous in MK100)] (parent complex)
chain 1: MSDLPIEFTELVDLMSLGISPQFLDFRSTTFESDHFVTVRETKDGTNSVAIVDLAKGNEVTRKNMGGDSAIMHPSQMVISVRANGTIVQIFNLETKSKLKSFTLDEPVIFWRWLSETTLGFVTARSILTSNVFDGNVNAKPQLLTLRHANLNNTQIINFVANKNLDWFAVVGILQENGRIAGRIQLFSKQRNISQAIDGHVAIFTNILLEGNGSTPVQVFVTGNRNATTGAGELRIIEIDHDASLPSQYQKETTDIFFPPDATNDFPIAVQVSEKYGIIYLLTKYGFIHLYELETGTNLFVNRITAESVFTAAPYNHENGIACINKKGQVLAVEISTSQIVPYILNKLSNVALALIVATRGGLPGADDLFQKQFESLLLQNDYQNAAKVAASSTSLRNQNTINRLKNIQAPPGAISPILLYFSTLLDKGKLNKEETIELARPVLQQDRKQLFEKWLKEDKLECSEELGDIVKPFDTTLALACYLRAGAHAKVISCLAELQQFEKIIPYCQKVGYQPNFLVLISSLIRSSPDRASEFAVSLLQNPETASQIDIEKIADLFFSQNHIQQGTSLLLDALKGDTPDQGHLQTRVLEVNLLHAPQVADAILGNNIFSHYDKPTIASLSEKAGLYQRALENYTDIKDIKRCVVHTNALPIDWLVGYFGKLNVEQSLACLKALMDNNIQANIQTVVQVATKFSDLIGPSTLIKLFEDYNATEGLYYYLASLVNLTEDKDVVYKYIEAAAKMKQYREIERIVKDNNVYDPERVKNFLKDANLEDQLPLVIVCDRFDFVHEMILYLYKSQNLKFIETYVQQVNPSKTAQVVGALLDMDCDEAFIQSLLQSVLGQVPINELTTEVEKRNRLKILLPFLEQSLSQGIQDQAVYNALAKIYIDSNNSPEKFLKENDQYDTLDVGHYCEKRDPYLAYIAYEKGQNDDDLIRITNENSMYKYQARYLLERSDLDLWNKVLNQENIHRRQLIDSVISVGIPELTDPEPVSLTVQAFMTNGLKLELIELLEKIILEPSPFNENVALQGLLLLSAIKYEPTKVSSYIEKLDNYDADEIAPLCIEHDLKEEAFEIYDKHEMYGKALKVLIEDIMSLDRAASYADKINTPELWSQIGTAQLDGLRIPDAIESYIKAEDPSNYENVIDIAEQAGKYEELIPFLLMARKTLKEPKIDGALILAYAELNKIHEIENLLAGSNVANLDHVGDKLFENKEYKAARLCYSAVSNYSKLASTLVYLGDYQAAVDTARKASNIKVWKLVNDACIEKKEFKLAQICGLNLIVHAEELDELVERYESNGYFEELISLFEAGLGLERAHMGMFTELAILYSKYEPDKTFEHLKLFWSRINIPKVIRAVEQAHLWSELVFLYAHYDEWDNAALTLIEKSTKDLDHAYFKEVVVKVSNLEIYYKAINFYVKFHPSLLVDLLTSLTPRLDIPRTVKIFSKSDNLPLIKPFLINVLPKNNSVVNQAYHDLMIEEEDYKALQDAVDSYDKFDQLGLASRLESHKLIFFKKIGALLYRRNKKWAKSLSILKEEKLWKDAIETAAISQDPKVVEALLTYFVETGNREGFVALLYAAYNLVRIEFVLEISWMNSLEDYIKPFEISIKKEQNDSIKKITEELAKKSGSNEEHKDGQPLMLMNSAMNVQPTGF
chain 2: MSKQFVRSAKNLVKGYSSTQVLVRNATSNDNHQVSKDSLIELAEKSYDSADFFEIMDMLDKRLNDKGKYWRHIAKALTVIDYLIRFGSENCVLWCRENLYIIKTLKEFRHEDDEGIDQGQIVRVKAKELTALLSDDERLNEERNMNIKGRNRKGRRRRGTGRSDENDDDLQRAISASRLTAEEDERRRKQDEDYETALQLSKEEEELKRLQDLQRMQQQQGQQQLQQPMYYDIFGNPITPEEYAQFQLQQQQQQQQQQLQQQPMYYDVFGNPITPEELAQFQQQQQLQEQQYLASMQQQQQAMSNNPFAKSEQSSSSPKRNQLVAASSPQQLQQQKQQEPLIQNRTGNQSMTDKYSKLNELLATGTGIDTFGNVGEARIPAQHTKTGTFINSQGTGYRQVSDDPNHNPFLNSQYTGLPSTSVVPTQTGYGFGNQSQQQSQNNGSNNRGYTLIDL
B2: Clathrin heavy chain fused to mScarlet (Chc-mScarlet), wild type [Saccharomyces cerevisiae] / Ent2 endogenously tagged with mNeonGreen (Ent2-mNeonGreen) [Saccharomyces cerevisiae (endogenous in MK100)] (parent complex)
chain 1: B1 chain 1
chain 2: MSKQFVRSAKNMMKGYSSTQVLVRDATANDSRTPSIDTLDDLAQRSYDSVDFFEIMDMLDKRLNDKGKYWRHVAKSLTVLDYLVRFGSENCVLWCRENFYVIKTLREFRHENESGFDEGQIIRVKAKELVSLLNDEERLREERSMNTRNRRANRAARPRPRRQRTRSNPHDSSPSYQDDLEKALEESRITAQEDEQRRRELAQYDDEDPDFQAALQLSKEEEELKQLQELQRLQKQQQSLSQFQAPLQQQQPQQQPAYYDIFGNPISQDEYLQYQYQQDQEQAMAQQRWLDQQQEQQQLAEQQYFQQQQQAAAAASALQQQQTAANMQQQQQQPADFQQPLPTGSNNPFSMDNLERQKQEQQHAQLQRQQEEARQQQEQLKLQQLQRQQQEEAQLHQKRQEEAQLQQQQAQLLQQQAQFQQQQPLKQTRTGNQSISDKYSDLNTLLATGTGIDTFGNTGEARIPAQHTKTGTFINSQGTGYKQVTNEPKNNPFLSNQYTGLPSTNIVPTQTGYGFGNQPQSPPTNSPQQNPTGISYSQPQQQQQPQQQPQYMQNFQQQQPQYAQNFQQQPQYTQNYQQQPQYIQPHQQQQQQQQQQQQQQGYTPDQGVSLIDL

The variants in the first test derive from B1. Nature of the test: FRET acceptor photobleaching (in vivo); room temperature (21 °C); trimmed mean; n = 98; parent: 7.87.
On to chain 1 F26A, chain 1 Q155A, for which the response worked out at 8.23%.

A further test covers variants of B1. Nature of the test: FRET acceptor photobleaching (in vivo); room temperature (21 °C); trimmed mean; n = 102; parent: 7.87.
Turning to chain 1 Q195A, chain 1 I197T, chain 1 K251E, the response came out at 8.6%.

A further test covers variants of B1. The experiment in a line: FRET acceptor photobleaching (in vivo); room temperature (21 °C); trimmed mean; n = 103; parent: 7.87.
For chain 1 F26A, chain 1 Q155A, chain 1 Q195A, chain 1 I197T, chain 1 K251E, the response was 8.19%.

Variants of B2 are the subject of another test. The experiment in a line: FRET acceptor photobleaching (in vivo); room temperature (21 °C); trimmed mean; n = 98; parent: 9.02.
With chain 1 K63E, chain 1 I87D, chain 1 Q89A, chain 1 K98E, the response was 9.99%.

In another test the parent is B2. Nature of the test: FRET acceptor photobleaching (in vivo); room temperature (21 °C); trimmed mean; n = 127; parent: 9.02.
For chain 1 F26A, chain 1 K63E, chain 1 I87D, chain 1 Q89A, chain 1 K98E, chain 1 Q155A, chain 1 Q195A, chain 1 I197T, chain 1 K251E, the response was determined as 7.03%.

The variants in another test derive from B2. Nature of the test: FRET acceptor photobleaching (in vivo); room temperature (21 °C); trimmed mean; n = 117; parent: 9.02.
With chain 1 F26A, chain 1 K63E, chain 1 I87D, chain 1 Q89A, chain 1 K98E, chain 1 Q155A, the response turned out to be 7.18%.

In a further test the parent is B2. Nature of the test: FRET acceptor photobleaching (in vivo); room temperature (21 °C); trimmed mean; n = 126; parent: 9.02.
On to chain 1 F26A, chain 1 Q155A, for which the response was 10.1%.
